B1: D10 A06-hFc (S239/442C T366Y/Y407T), [G4S]3 linker, MC-vc-PAB-MMAE conjugate, #633 (Fc fusion, DAR 4)
chain 1: QVQLVESGGGLVQPGGSLRLSCAASGSIFSVNTMGWYRQAPGKQRDLVAVATSGGTIHYADSVKGRFTISRDNAKNTVYLQMNSLKPEDTAVYYCNLVVPYGMIAGDHDYWGQGTKVTVSSGGGGSGGGGSGGGGSEPKSSDKTHTCPPCPAPELLGGPCVFLFPPKPKDTLMISRTPEVTCVVVDVSHEDPEVKFNWYVDGVEVHNAKTKPREEQYNSTYRVVSVLTVLHQDWLNGKEYKCKVSNKALPAPIEKTISKAKGQPREPQVYTLPPSRDELTKNQVSLYCLVKGFYPSDIAVEWESNGQPENNYKTTPPVLDSDGSFFLYSKLTVDKSRWQQGNVFSCSVMHEALHNHYTQKSLCLSPGK
chain 2: QVHLVESGGGLVQAGGSLRLSCAASGRTFLSMGWFRQAPGKEREFVAAISWTGGSTGYADSVKGRFTISRESDKETMYLQMNSLKPEDTAVYYCAARGDVYYGGDDATRYKYWGQGTQVTVSSGGGGSGGGGSGGGGSEPKSSDKTHTCPPCPAPELLGGPCVFLFPPKPKDTLMISRTPEVTCVVVDVSHEDPEVKFNWYVDGVEVHNAKTKPREEQYNSTYRVVSVLTVLHQDWLNGKEYKCKVSNKALPAPIEKTISKAKGQPREPQVYTLPPSRDELTKNQVSLTCLVKGFYPSDIAVEWESNGQPENNYKTTPPVLDSDGSFFLTSKLTVDKSRWQQGNVFSCSVMHEALHNHYTQKSLCLSPGK
modifications: here or on the partner: MC-vc-PAB-MMAE on Cys of S239C and S442C (EU numbering)
B2: D10 E06-hFc (S239/442C T366Y/Y407T), [G4S]3 linker, MC-vc-PAB-MMAE conjugate, #634 (Fc fusion, DAR 4)
chain 1: QVQLVESGGGLVQPGGSLRLSCAASGSIFSVNTMGWYRQAPGKQRDLVAVATSGGTIHYADSVKGRFTISRDNAKNTVYLQMNSLKPEDTAVYYCNLVVPYGMIAGDHDYWGQGTKVTVSSGGGGSGGGGSGGGGSEPKSSDKTHTCPPCPAPELLGGPCVFLFPPKPKDTLMISRTPEVTCVVVDVSHEDPEVKFNWYVDGVEVHNAKTKPREEQYNSTYRVVSVLTVLHQDWLNGKEYKCKVSNKALPAPIEKTISKAKGQPREPQVYTLPPSRDELTKNQVSLYCLVKGFYPSDIAVEWESNGQPENNYKTTPPVLDSDGSFFLYSKLTVDKSRWQQGNVFSCSVMHEALHNHYTQKSLCLSPGK
chain 2: QVHLVESGGGLVQAGGSLRLSCAASRRSFSEYAMGWFRQAPGKEREFVAAIGWSGVIEYADSVKGRFTISRDNAKDTVYLQMNSLKPEDTAVYYCAAGLGIRVVSQTPAYWGQGTQVTVSSGGGGSGGGGSGGGGSEPKSSDKTHTCPPCPAPELLGGPCVFLFPPKPKDTLMISRTPEVTCVVVDVSHEDPEVKFNWYVDGVEVHNAKTKPREEQYNSTYRVVSVLTVLHQDWLNGKEYKCKVSNKALPAPIEKTISKAKGQPREPQVYTLPPSRDELTKNQVSLTCLVKGFYPSDIAVEWESNGQPENNYKTTPPVLDSDGSFFLTSKLTVDKSRWQQGNVFSCSVMHEALHNHYTQKSLCLSPGK
modifications: here or on the partner: MC-vc-PAB-MMAE on Cys of S239C and S442C (EU numbering)
B3: D10 E10-hFc (S239/442C T366Y/Y407T), [G4S]3 linker, MC-vc-PAB-MMAE conjugate, #636 (Fc fusion, DAR 4)
chain 1: QVQLVESGGGLVQPGGSLRLSCAASGSIFSVNTMGWYRQAPGKQRDLVAVATSGGTIHYADSVKGRFTISRDNAKNTVYLQMNSLKPEDTAVYYCNLVVPYGMIAGDHDYWGQGTKVTVSSGGGGSGGGGSGGGGSEPKSSDKTHTCPPCPAPELLGGPCVFLFPPKPKDTLMISRTPEVTCVVVDVSHEDPEVKFNWYVDGVEVHNAKTKPREEQYNSTYRVVSVLTVLHQDWLNGKEYKCKVSNKALPAPIEKTISKAKGQPREPQVYTLPPSRDELTKNQVSLYCLVKGFYPSDIAVEWESNGQPENNYKTTPPVLDSDGSFFLYSKLTVDKSRWQQGNVFSCSVMHEALHNHYTQKSLCLSPGK
chain 2: QVQLVESGGGLVQAGGSLRLSCAVSGRALSDYNIGWFRQAPGKEREFVARKTWDGSSTRYDDSVKGRFTVSIEDAKNTAYLQMSSLKTEDTAVYYCAAGRYSRARGWEYDYWGQGTQVTVSSGGGGSGGGGSGGGGSEPKSSDKTHTCPPCPAPELLGGPCVFLFPPKPKDTLMISRTPEVTCVVVDVSHEDPEVKFNWYVDGVEVHNAKTKPREEQYNSTYRVVSVLTVLHQDWLNGKEYKCKVSNKALPAPIEKTISKAKGQPREPQVYTLPPSRDELTKNQVSLTCLVKGFYPSDIAVEWESNGQPENNYKTTPPVLDSDGSFFLTSKLTVDKSRWQQGNVFSCSVMHEALHNHYTQKSLCLSPGK
modifications: here or on the partner: MC-vc-PAB-MMAE on Cys of S239C and S442C (EU numbering)
B4: D10 F05-hFc (S239/442C T366Y/Y407T), [G4S]3 linker, MC-vc-PAB-MMAE conjugate, #637 (Fc fusion, DAR 4)
chain 1: QVQLVESGGGLVQPGGSLRLSCAASGSIFSVNTMGWYRQAPGKQRDLVAVATSGGTIHYADSVKGRFTISRDNAKNTVYLQMNSLKPEDTAVYYCNLVVPYGMIAGDHDYWGQGTKVTVSSGGGGSGGGGSGGGGSEPKSSDKTHTCPPCPAPELLGGPCVFLFPPKPKDTLMISRTPEVTCVVVDVSHEDPEVKFNWYVDGVEVHNAKTKPREEQYNSTYRVVSVLTVLHQDWLNGKEYKCKVSNKALPAPIEKTISKAKGQPREPQVYTLPPSRDELTKNQVSLYCLVKGFYPSDIAVEWESNGQPENNYKTTPPVLDSDGSFFLYSKLTVDKSRWQQGNVFSCSVMHEALHNHYTQKSLCLSPGK
chain 2: QVQLVESGGGLVQAGGSLRLSCAASGRAFGDYNIGWFRQAPGKEREFVARRTWDGSSTRYDDSVKGRFTVSIDNAKNTAYLQMNSLKTEDTAVYYCAAGRYSRVRGWEYDYWGQGTQVTVSSGGGGSGGGGSGGGGSEPKSSDKTHTCPPCPAPELLGGPCVFLFPPKPKDTLMISRTPEVTCVVVDVSHEDPEVKFNWYVDGVEVHNAKTKPREEQYNSTYRVVSVLTVLHQDWLNGKEYKCKVSNKALPAPIEKTISKAKGQPREPQVYTLPPSRDELTKNQVSLTCLVKGFYPSDIAVEWESNGQPENNYKTTPPVLDSDGSFFLTSKLTVDKSRWQQGNVFSCSVMHEALHNHYTQKSLCLSPGK
modifications: here or on the partner: MC-vc-PAB-MMAE on Cys of S239C and S442C (EU numbering)
B5: A06 E06-hFc (S239/442C T366Y/Y407T), [G4S]3 linker, MC-vc-PAB-MMAE conjugate, #639 (Fc fusion, DAR 4)
chain 1: QVHLVESGGGLVQAGGSLRLSCAASGRTFLSMGWFRQAPGKEREFVAAISWTGGSTGYADSVKGRFTISRESDKETMYLQMNSLKPEDTAVYYCAARGDVYYGGDDATRYKYWGQGTQVTVSSGGGGSGGGGSGGGGSEPKSSDKTHTCPPCPAPELLGGPCVFLFPPKPKDTLMISRTPEVTCVVVDVSHEDPEVKFNWYVDGVEVHNAKTKPREEQYNSTYRVVSVLTVLHQDWLNGKEYKCKVSNKALPAPIEKTISKAKGQPREPQVYTLPPSRDELTKNQVSLYCLVKGFYPSDIAVEWESNGQPENNYKTTPPVLDSDGSFFLYSKLTVDKSRWQQGNVFSCSVMHEALHNHYTQKSLCLSPGK
chain 2: QVHLVESGGGLVQAGGSLRLSCAASRRSFSEYAMGWFRQAPGKEREFVAAIGWSGVIEYADSVKGRFTISRDNAKDTVYLQMNSLKPEDTAVYYCAAGLGIRVVSQTPAYWGQGTQVTVSSGGGGSGGGGSGGGGSEPKSSDKTHTCPPCPAPELLGGPCVFLFPPKPKDTLMISRTPEVTCVVVDVSHEDPEVKFNWYVDGVEVHNAKTKPREEQYNSTYRVVSVLTVLHQDWLNGKEYKCKVSNKALPAPIEKTISKAKGQPREPQVYTLPPSRDELTKNQVSLTCLVKGFYPSDIAVEWESNGQPENNYKTTPPVLDSDGSFFLTSKLTVDKSRWQQGNVFSCSVMHEALHNHYTQKSLCLSPGK
modifications: here or on the partner: MC-vc-PAB-MMAE on Cys of S239C and S442C (EU numbering)
B6: A06 E10-hFc (S239/442C T366Y/Y407T), [G4S]3 linker, MC-vc-PAB-MMAE conjugate, #664 (Fc fusion, DAR 4)
chain 1: QVHLVESGGGLVQAGGSLRLSCAASGRTFLSMGWFRQAPGKEREFVAAISWTGGSTGYADSVKGRFTISRESDKETMYLQMNSLKPEDTAVYYCAARGDVYYGGDDATRYKYWGQGTQVTVSSGGGGSGGGGSGGGGSEPKSSDKTHTCPPCPAPELLGGPCVFLFPPKPKDTLMISRTPEVTCVVVDVSHEDPEVKFNWYVDGVEVHNAKTKPREEQYNSTYRVVSVLTVLHQDWLNGKEYKCKVSNKALPAPIEKTISKAKGQPREPQVYTLPPSRDELTKNQVSLYCLVKGFYPSDIAVEWESNGQPENNYKTTPPVLDSDGSFFLYSKLTVDKSRWQQGNVFSCSVMHEALHNHYTQKSLCLSPGK
chain 2: QVQLVESGGGLVQAGGSLRLSCAVSGRALSDYNIGWFRQAPGKEREFVARKTWDGSSTRYDDSVKGRFTVSIEDAKNTAYLQMSSLKTEDTAVYYCAAGRYSRARGWEYDYWGQGTQVTVSSGGGGSGGGGSGGGGSEPKSSDKTHTCPPCPAPELLGGPCVFLFPPKPKDTLMISRTPEVTCVVVDVSHEDPEVKFNWYVDGVEVHNAKTKPREEQYNSTYRVVSVLTVLHQDWLNGKEYKCKVSNKALPAPIEKTISKAKGQPREPQVYTLPPSRDELTKNQVSLTCLVKGFYPSDIAVEWESNGQPENNYKTTPPVLDSDGSFFLTSKLTVDKSRWQQGNVFSCSVMHEALHNHYTQKSLCLSPGK
modifications: here or on the partner: MC-vc-PAB-MMAE on Cys of S239C and S442C (EU numbering)
B7: A06 F05-hFc (S239/442C T366Y/Y407T), [G4S]3 linker, MC-vc-PAB-MMAE conjugate, #665 (Fc fusion, DAR 4)
chain 1: QVHLVESGGGLVQAGGSLRLSCAASGRTFLSMGWFRQAPGKEREFVAAISWTGGSTGYADSVKGRFTISRESDKETMYLQMNSLKPEDTAVYYCAARGDVYYGGDDATRYKYWGQGTQVTVSSGGGGSGGGGSGGGGSEPKSSDKTHTCPPCPAPELLGGPCVFLFPPKPKDTLMISRTPEVTCVVVDVSHEDPEVKFNWYVDGVEVHNAKTKPREEQYNSTYRVVSVLTVLHQDWLNGKEYKCKVSNKALPAPIEKTISKAKGQPREPQVYTLPPSRDELTKNQVSLYCLVKGFYPSDIAVEWESNGQPENNYKTTPPVLDSDGSFFLYSKLTVDKSRWQQGNVFSCSVMHEALHNHYTQKSLCLSPGK
chain 2: QVQLVESGGGLVQAGGSLRLSCAASGRAFGDYNIGWFRQAPGKEREFVARRTWDGSSTRYDDSVKGRFTVSIDNAKNTAYLQMNSLKTEDTAVYYCAAGRYSRVRGWEYDYWGQGTQVTVSSGGGGSGGGGSGGGGSEPKSSDKTHTCPPCPAPELLGGPCVFLFPPKPKDTLMISRTPEVTCVVVDVSHEDPEVKFNWYVDGVEVHNAKTKPREEQYNSTYRVVSVLTVLHQDWLNGKEYKCKVSNKALPAPIEKTISKAKGQPREPQVYTLPPSRDELTKNQVSLTCLVKGFYPSDIAVEWESNGQPENNYKTTPPVLDSDGSFFLTSKLTVDKSRWQQGNVFSCSVMHEALHNHYTQKSLCLSPGK
modifications: here or on the partner: MC-vc-PAB-MMAE on Cys of S239C and S442C (EU numbering)

Biological target: ALPP/ALPPL2 on ALPP/ALPPL2 positive cancer cells (MKN1, NCI-H1651, NCI-N87, Caov-3, HPAC)
Assay: cell-based or functional assay

| Binder | % viability remaining at 96 h, MKN1 cells [%] | % viability remaining at 96 h, NCI-H1651 cells [%] | % viability remaining at 96 h, NCI-N87 cells [%] | IC50 at 96 h, cell-killing of MKN1 cells [nM] | IC50 at 96 h, cell-killing of NCI-H1651 cells [nM] | IC50 at 96 h, cell-killing of NCI-N87 cells [nM] |
| --- | --- | --- | --- | --- | --- | --- |
| B1 | 27.9 | 25.4 | 27.3 | 1.4 | 5.4 | 4.9 |
| B2 | 31.1 | 28.5 | 27.6 | 2.6 | 1.1 | 2.4 |
| B3 | 30 | 28.9 | 26.2 | 1.9 | 0.9 | 2.1 |
| B4 | 28.1 | 28 | 28.9 | 1.3 | 1.2 | 5.1 |
| B5 | 30.6 | 28 | 27.8 | 2.3 | 0.9 | 12.9 |
| B6 | 29.7 | 27.2 | 28.7 | 0.9 | 0.6 | 4.7 |
| B7 | 31.6 | 25 | 27 | 0.7 | 0.4 | 5.8 |
